Assay results taken from patent US20260250398A1.

Biological target: FZD1/2/4/5/7/8
Assay: cell-based or functional assay

B1: CM0011 (FZD Diabody-Fc-LRP Diabody; paratopes 5019; 2539, 2542) (bispecific antibody)
chain 1: MNLLLILTFVAAAVAEFEVQLVESGGGLVQPGGSLRLSCAASGFNIGSSSIHWVRQAPGKGLEWVASIYSAFASTSYADSVKGRFTISADTSKNTAYLQMNSLRAEDTAVYYCARYHFPFGFALDYWGQGTLVTVSSGGGGSDIQMTQSPSSLSASVGDRVTITCRASQSVSSAVAWYQQKPGKAPKLLIYSASSLYSGVPSRFSGSRSGTDFTLTISSLQPEDFATYYCQQGVYLFTFGQGTKVEIKLEDKTHTKVEPKSSDKTHNCPPCPAPELLGGPSVFLFPPKPKDTLMISRTPEVTCVVVDVSHEDPEVKFNWYVDGVEVHNAKTKPREEQYNSTYRVVSVLTVLHQDWLNGKEYKCKVSNKALPAPIEKTISKAKGQPREPQVYTLPPIRELMTSNQVSLSCAVKGFYPSDIAVEWESNGQPENNYKTTPPVLDSDGSFFLVSKLTVDKSRWQQGNVFSCSVMHEALHNHYTQKSLSLSPGKSGSETPGTSESATPESGGGEVQLVESGGGLVQPGGSLRLSCAASGFNISSYYIHWVRQAPGKGLEWVASIYSSYGYTSYADSVKGRFTISADTSKNTAYLQMNSLRAEDTAVYYCARTVRGSKKPYFSGWAMDYWGQGTLVTVSSGGGGSDIQMTQSPSSLSASVGDRVTITCRASQSVSSAVAWYQQKPGKAPKLLIYSASSLYSGVPSRFSGSRSGTDFTLTISSLQPEDFATYYCQQYSWGPFTFGQGTKVEIK
chain 2: MNLLLILTFVAAAVAEFEVQLVESGGGLVQPGGSLRLSCAASGFNIGSSSIHWVRQAPGKGLEWVASIYSAFASTSYADSVKGRFTISADTSKNTAYLQMNSLRAEDTAVYYCARYHFPFGFALDYWGQGTLVTVSSGGGGSDIQMTQSPSSLSASVGDRVTITCRASQSVSSAVAWYQQKPGKAPKLLIYSASSLYSGVPSRFSGSRSGTDFTLTISSLQPEDFATYYCQQGVYLFTFGQGTKVEIKLEDKTHTKVEPKTSDKTHTCPPCPAPELLGGPSVFLFPPKPKDTLMISRTPEVTCVVVDVSHEDPEVKFNWYVDGVEVHNAKTKPREEQYNSTYRVVSVLTVLHQDWLNGKEYKCKVSNKALPAPIEKTISKAKGQPREPMVFDLPPSREEMTKNQVSLWCMVKGFYPSDIAVEWESNGQPENNYKTTPPVLDSDGSFFLYSKLTVDKSRWQQGNVFSCSVMHEALHNHYTQKSLSLSPGKSGSETPGTSESATPESGGGEVQLVESGGGLVQPGGSLRLSCAASGFNISYSSIHWVRQAPGKGLEWVAYISSYYGYTYYADSVKGRFTISADTSKNTAYLQMNSLRAEDTAVYYCARAHYFPWAGAMDYWGQGTLVTVSSGGGGSDIQMTQSPSSLSASVGDRVTITCRASQSVSSAVAWYQQKPGKAPKLLIYSASSLYSGVPSRFSGSRSGTDFTLTISSLQPEDFATYYCQQYYWPITFGQGTKVEIK
TOPFLASH % Wnt Maxima: 63 % Wnt Maxima
TOPFLASH EC50: 0.3 nM
